Test [1] concerns 293T cells. Put plainly: Apoptosis assay, CIDE transfection. The class given is cell-based, human. The procedure:
Apoptosis Assays, fluorescence staining of nuclear DNA and DNA fragmentation assay: 5×10^5 293T cells were co-transfected with 0.2 μg of pcDNA3-β-gal plus each expression plasmid in triplicate by the calcium phosphate method as reported [N. Inohara et al, “CLARP, a death effector domain-containing protein interacts with caspase-8 and regulates apoptosis,” Proc. Natl. Acad. Sci. USA 94:10717-10722 (1997a)].
MCF7 were cotransfected with vector control or CIDE-A and β-galactosidase-expressing reporter construct by Lipofectamine (Gibco BRL) according to the manufacturer's instructions. In some experiments, 20 μM zVAD-fmk (benzyloxycarbonyl-Val-Ala-Asp-(OMe)-fluoromethylketone), zFA-fmk (benzyloxycarbonyl-Phe-Ala-(OMc)-fluoromethylketone) and zDEVD-fmk (benzyloxycarbonyl-Asp-Glu-Val-Asp-(OMe)-fluoromethylketone) were added into medium at 8 hr after transfection. zFA-fmk, zVAD-fmk and zDEVD-fmk were obtained from Enzyme Systems. At 24 hours after transfection, cells were fixed, stained for β-galactosidase as described [N. Inohara et al., “CLARP, a death effector domain-containing protein interacts with caspase-8 and regulates apoptosis,” Proc. Natl. Acad. Sci. USA 94:10717-10722 (1997a)] and assayed for morphological features of apoptosis. At least 300 hundred blue-staining cells were counted. Statistical significance was determined by one-way ANOVA followed by Student-Neuman-Keuls post-doc comparisons.
Nuclear staining with acridine-orange was performed as described [N. Inohara et al., “harakiri, a novel regulator of cell death, encodes a protein that activates apoptosis and interacts selectively with survival-promoting proteins Bcl-2 and Bcl-XL.,” EMBO J. 16:1686-1694 (1997b)]. Genomic DNA was extracted and analyzed for DNA fragmentation as described [X. Liu et al., “Apaf-1, a human protein homologous to C. elegans CED-4, participates in cytochrome c-dependent activation of caspase-3,” Cell 90:405-413 (1997)].

Test [2] deals with 293T cells. Put plainly: Apoptosis assay, RICK co-transfection. The class given is cell-based, human. The conditions noted are these: for caspase-8-induced apoptosis potentiated by RICK: 293T cells, zVAD-fmk 20 μM added at 8 hrs after transfection, p35 by expression plasmid. Here is the method:
The total amount of transfected plasmid DNA was adjusted with pcDNA3 plasmid to be the same within individual experiments. After transfection, 293T cells were harvested at different times and lysed with 0.2% NP-40 isotonic lysis buffer [N. Inohara et al., Proc. Natl. Acad. Sci. U.S.A. 94:10717-10722 (1997)]. The B lymphocyte-derived BJAB cell line was stably trasnfected by electroporation with pcDNA3 or pcDNA3-Flag-RICK (K38M). After selection with […] (1 μg/ml), bulk cell lines were tested for RICK protein expression with anti-Flag antibody by flow cytometric analysis. For immunoprecipitation, 1 mg of soluble protein was incubated with 10 μg/ml of polyclonal anti-Flag, anti-myc or control antibody overnight at 4° C. and tagged proteins were immunoprecipitated with Protein A-Sepharose 4B (Zymed Laboratories Inc.). Immunoprecipitated proteins or total lysates were subjected to 12% SDS-polyacrylamide electrophoresis and immunoblotted with monoclonal antibodies (mAb) to HA (Boeringer Mannheim) or Flag (Kodak).
Apoptosis Assays: 5×10^5 293T cells were co-transfected with 0.2 μg of pcDNA3-β-gal plus each expression plasmid in triplicate by the calcium phosphate method as reported [N. Inohara et al., Proc. Natl. Acad. Sci. U.S.A. 94:10717-10722 (1997)]. In some experiments, 20 μM of the caspase inhibitor zVAD-fmk (Enzyme Systems Products) or 12.5 μl of medium from […] cells producing Fas ligand (Immunex Corporation, Seattle, Wash.) was added at 8 hrs after transfection. At 18 or 24 hours after transfection, cells were fixed, stained for β-galactosidase as described [N. Inohara et al., Proc. Natl Acad. Sci. U.S.A. 94:10717-10722 (1997)] and assayed for morphological features of apoptosis. At least 300 hundred blue-staining cells were counted. BJAB apoptosis induced by anti-Apol mAb was determined by flow cytometric analysis of nuclei stained with propidium iodide as described [R. Merino et al., J. Immunol. 155:3830-3838 (1995)]. Statistical significance was determined by one-way ANOVA followed by Student-Neuman-Keuls post-doc comparisons.

The subject of test [3] is 293T cells. Nature of the test: β-galactosidase apoptosis assay, ARC co-transfection. The format is cell-based, human. Here is the method:
Briefly, 2 μg of pcDNA3 or pcDNA3-ARC-Flag or -HA was co-transfected with 3 μg of pcDNA3 or caspase expression plasmids. Total amount of transfected plasmid DNA was always 5 μg. 293T cells were harvested after 22 hr and lysed with 0.2% NP-40 isotonic lysis buffer [Z. N. Oltvai et al., Cell 74:609-619 (1993)]. For immunoprecipitation, […] of soluble protein was incubated with 10 μg/ml of polyclonal anti-Flag, monoclonal anti-AU1 or polyclonal anti-HA antibody for 2 hr at 4° C. and tagged proteins were immunoprecipitated with Protein A-Sepharose 4B (Zymed Laboratories Inc., San Francisco, Calif.). Immunoprecipitates were subjected to 12% SDS-polyacrylamide electrophoresis and immunoblotted with anti-Flag, anti-AU1 or anti-HA antibodies. β-galactosidase apoptosis assay and Caspase-8 enzymatic assay: 5×10^5 293T cells were transfected with 0.3 μg of pcDNA3-β-gal plus each expression plasmid in triplicate. Cells were fixed 16 hrs after transfection, stained for β-galactosidase and assayed for morphological features of apoptosis [M. Muira et al., Cell 75:653-660 (1993)]. Statistical significance was determined by one-way ANOVA followed by Student-Neuman-Keuls post-doc comparisons. For caspase-8 enzymatic assay, 1.5×10^6 human 293T cells were co-transfected with pcDNA3, pcDNA3-ARC-Flag, pcDNA3-caspase-8 and pcDNA3-caspase-8-mt by a calcium phosphate method. Total amount of transfected plasmid DNA was always 2.5 μg. 293T cells were harvested 18hr after transfection and lysed with 0.2% NP-40 isotonic lysis buffer. Tagged proteins were immunoprecipitated and caspase activity was measured as described [N. Inohara et al., Proc. Natl. Acad. Sci. USA 94:10717-10722 (1997)].

Test [4] deals with T1, Flag-tagged RICK (RIP-like interacting CLARP kinase), pcDNA3-Flag-RICK (human, UniProt O43353 11-540, limits assumed).
T1 construct: Entire open reading frame of RICK, expressed in 293T cells; also called CIPERK; Flag-CIPERK; not shown: N-terminal Flag tag
T1 sequence (O43353 other isoform, or with tags, fused parts or gaps limits assumed): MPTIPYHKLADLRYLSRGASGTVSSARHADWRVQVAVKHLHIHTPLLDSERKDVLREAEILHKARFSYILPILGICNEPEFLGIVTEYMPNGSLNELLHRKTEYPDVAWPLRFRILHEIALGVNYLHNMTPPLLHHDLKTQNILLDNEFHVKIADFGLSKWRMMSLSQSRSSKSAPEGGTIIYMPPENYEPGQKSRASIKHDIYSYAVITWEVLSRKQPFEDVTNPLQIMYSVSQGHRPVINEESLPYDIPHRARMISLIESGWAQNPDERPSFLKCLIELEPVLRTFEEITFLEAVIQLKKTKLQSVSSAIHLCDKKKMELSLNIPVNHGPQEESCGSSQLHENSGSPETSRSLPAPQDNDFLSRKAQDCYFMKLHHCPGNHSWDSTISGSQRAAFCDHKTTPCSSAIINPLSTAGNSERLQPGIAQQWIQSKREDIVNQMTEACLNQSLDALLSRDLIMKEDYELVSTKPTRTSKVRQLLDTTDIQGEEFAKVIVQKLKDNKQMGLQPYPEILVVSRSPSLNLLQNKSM
Put plainly: anti-Flag immunoprecipitation from co-transfected 293T cells, anti-HA immunoblot. Background: In western blotting, separated proteins are transferred to a membrane and probed.

Like-named read-outs stand apart in the source and are kept apart here. Peptide text beside a SMILES is read from it. * marks the point of attachment. Cbz = O=C(OCc1ccccc1)*; CH2F = FC*

On to `COC(=O)CC[C@H](NC(=O)[C@H](CC(=O)OC)NC(=O)OCc1ccccc1)C(=O)N[C@H](C(=O)N[C@@H](CC(=O)OC)C(=O)CF)C(C)C` [zDEVD-fmk, benzyloxycarbonyl-Asp-Glu-Val-Asp-(OMe)-fluoromethylketone, reference compound], for which the “killing activity of CIDE-A in presence of caspase inhibitors” value in test [1] is “unaffected”.

`COC(=O)CC(NC(=O)C(C)NC(=O)C(NC(=O)OCc1ccccc1)C(C)C)C(=O)CF` (stereo not drawn) [zVAD-fmk, benzyloxycarbonyl-Val-Ala-Asp-(OMe)-fluoromethylketone, reference compound] (Cbz-Val-Ala-Asp(OMe)-CH2F; configuration not given here): the “apoptosis induced by caspase-8” value in test [1] (293T cells, control experiment, same concentration (20 μM)) was “inhibited”. Also, the “killing activity of CIDE-A in presence of caspase inhibitors” value in test [1] (293T cells, peptide inhibitors 20 μM added at 8 hr after transfection, CrmA by plasmid) is “unaffected”. Besides, the “caspase-8-induced apoptosis potentiated by RICK” value in test [2] was “inhibited”.

B1: truncated form of ARC: truncated form of ARC that expressed the CARD domain (amino acid 1-106) (protein, UniProt O60936 1-106, looked up, fragment)
chain: MGNAQERPSETIDRERKRLVETLQADSGLLLDALLARGVLTGPEYEALDALPDAERRVRRLLLLVQGKGEAACQELLRCAQRTAGAPDPAWDWQHVGPGYRDRSYD
B1: in test [3], the “ability to suppress apoptosis induced by caspase-4, compared with full length ARC” value is given as “no significant difference” and the “ability to suppress apoptosis induced by caspase-8, compared with full length ARC” value is “no significant difference”.

B2: CIDE-A (1-107): CIDE-A mutant containing the N-terminal half with homology to DFF45 (protein, UniProt O70302 1-107, looked up, fragment)
chain: METARDYAGALIRPLTFMGLQTKKVLLTPLIHPARPFRVSNHDRSSRRGVMASSLQELISKTLDVLVITTGLVTLVLEEDGTVVDTEEFFQTLRDNTHFMILEKGQK
Take B2: in test [1] (293T cells), the “induction of apoptosis (killing) of 293T cells by expression” value is given as “did not”. Moreover, the “inhibition of CIDE-A-induced apoptosis by DFF45” value in test [1] (293T cells, co-expression) is listed as “antagonized”.

B3: human caspase-2, epitope-tagged (enzyme, UniProt P42575 18-452, looked up)
chain: MAADRGRRILGVCGMHPHHQETLKKNRVVLAKQLLLSELLEHLLEKDIITLEMRELIQAKVGSFSQNVELLNLLPKRGPQAFDAFCEALRETKQGHLEDMLLTTLSGLQHVLPPLSCDYDLSLPFPVCESCPLYKKLRLSTDTVEHSLDNKDGPVCLQVKPCTPEFYQTHFQLAYRLQSRPRGLALVLSNVHFTGEKELEFRSGGDVDHSTLVTLFKLLGYDVHVLCDQTAQEMQEKLQNFAQLPAHRVTDSCIVALLSHGVEGAIYGVDGKLLQLQEVFQLFDNANCPSLQNKPKMFFIQACRGDETDRGVDQQDGKNHAGSPGCEESDAGKEKLPKMRLPTRSDMICGYACLKGTAAMRNTKRGSWYIEALAQVFSERACDMHVADMLVKVNALIKDREGYAPGTEFHRCKEMSEYCSTLCRHLYLFPGHPPT
notes: also called AU1-tagged caspase-2; not shown: lette
In the case of B3, in test [4], the binding result is reported as “no binding”.

B4: CIDE-A (108-200): CIDE-A mutant containing the C-terminal half (protein, UniProt O70302 108-200, looked up, fragment)
chain: WTPGSKYVPVCKQPKKSGIARVTFDLYRLNPKDFLGCLNVKATMYEMYSVSYDIRCTSFKAVLRNLLRFMSYAAQMTGQFLVYAGTYMLRVLG
For the molecule B4, in test [1] (293T cells), the “induction of apoptosis (killing) of 293T cells by expression” value is given as “capable of inducing apoptosis” and the “killing activity compared with wild-type CIDE-A” value is “greater”.

B5: baculovirus p35: broad-based caspase inhibitor protein of baculovirus, expressed from plasmid (protein, UniProt P08160 1-299, looked up)
Early 35 kDa protein: MCVIFPVEIDVSQTIIRDCQVDKQTRELVYINKIMNTQLTKPVLMMFNISGPIRSVTRKNNNLRDRIKSKVDEQFDQLERDYSDQMDGFHDSIKYFKDEHYSVSCQNGSVLKSKFAKILKSHDYTDKKSIEAYEKYCLPKLVDERNDYYVAVCVLKPGFENGSNQVLSFEYNPIGNKVIVPFAHEINDTGLYEYDVVAYVDSVQFDGEQFEEFVQSLILPSSFKNSEKVLYYNEASKNKSMIYKALEFTTESSWGKSEKYNWKIFCNGFIYDKKSKVLYVKLHNVTSALNKNVILNTIK
As for B5, the “caspase-8-induced apoptosis potentiated by RICK” value in test [2] was “inhibited”.

B6: caspase-3, epitope-tagged (enzyme, UniProt P42574 1-277, looked up)
chain: MENTENSVDSKSIKNLEPKIIHGSESMDSGISLDNSYKMDYPEMGLCIIINNKNFHKSTGMTSRSGTDVDAANLRETFRNLKYEVRNKNDLTREEIVELMRDVSKEDHSKRSSFVCVLLSHGEEGIIFGTNGPVDLKKITNFFRGDRCRSLTGKPKLFIIQACRGTELDCGIETDSGVDDDMACHKIPVEADFLYAYSTAPGYYSWRNSKDGSWFIQSLCAMLKQYADKLEFMHILTRVNRKVATEFESFSFDATFHAKKQIPCIVSMLTKELYFYH
notes: also called pcDNA3-caspase-3-Flag; not shown: position and
Take B6: the binding result in test [4] is reported as “no binding”.

B7: deletion mutant missing the C-terminal 165 amino acids: RICK deletion mutant missing the C-terminal 165 amino acids that span the CARD domain (protein, UniProt O43353 1-365, looked up, fragment)
chain: MNGEAICSALPTIPYHKLADLRYLSRGASGTVSSARHADWRVQVAVKHLHIHTPLLDSERKDVLREAEILHKARFSYILPILGICNEPEFLGIVTEYMPNGSLNELLHRKTEYPDVAWPLRFRILHEIALGVNYLHNMTPPLLHHDLKTQNILLDNEFHVKIADFGLSKWRMMSLSQSRSSKSAPEGGTIIYMPPENYEPGQKSRASIKHDIYSYAVITWEVLSRKQPFEDVTNPLQIMYSVSQGHRPVINEESLPYDIPHRARMISLIESGWAQNPDERPSFLKCLIELEPVLRTFEEITFLEAVIQLKKTKLQSVSSAIHLCDKKKMELSLNIPVNHGPQEESCGSSQLHENSGSPETSRSLP
For the molecule B7, the “apoptosis of 293T cells induced by Fas, Fas plus FasL or caspase-8” value in test [2] (co-expression with RICK deletion mutants) is on record as “did not enhance apoptosis”.
